Data: US20210008161A1 (CRISPR THERAPEUTICS, published 2021)

Biological target: p53-binding protein 1 (53BP1) (human, UniProt Q12888 1-1972)
Test: cell-based or functional assay

p53-binding protein 1 (53BP1), sequence (Q12888 whole entry): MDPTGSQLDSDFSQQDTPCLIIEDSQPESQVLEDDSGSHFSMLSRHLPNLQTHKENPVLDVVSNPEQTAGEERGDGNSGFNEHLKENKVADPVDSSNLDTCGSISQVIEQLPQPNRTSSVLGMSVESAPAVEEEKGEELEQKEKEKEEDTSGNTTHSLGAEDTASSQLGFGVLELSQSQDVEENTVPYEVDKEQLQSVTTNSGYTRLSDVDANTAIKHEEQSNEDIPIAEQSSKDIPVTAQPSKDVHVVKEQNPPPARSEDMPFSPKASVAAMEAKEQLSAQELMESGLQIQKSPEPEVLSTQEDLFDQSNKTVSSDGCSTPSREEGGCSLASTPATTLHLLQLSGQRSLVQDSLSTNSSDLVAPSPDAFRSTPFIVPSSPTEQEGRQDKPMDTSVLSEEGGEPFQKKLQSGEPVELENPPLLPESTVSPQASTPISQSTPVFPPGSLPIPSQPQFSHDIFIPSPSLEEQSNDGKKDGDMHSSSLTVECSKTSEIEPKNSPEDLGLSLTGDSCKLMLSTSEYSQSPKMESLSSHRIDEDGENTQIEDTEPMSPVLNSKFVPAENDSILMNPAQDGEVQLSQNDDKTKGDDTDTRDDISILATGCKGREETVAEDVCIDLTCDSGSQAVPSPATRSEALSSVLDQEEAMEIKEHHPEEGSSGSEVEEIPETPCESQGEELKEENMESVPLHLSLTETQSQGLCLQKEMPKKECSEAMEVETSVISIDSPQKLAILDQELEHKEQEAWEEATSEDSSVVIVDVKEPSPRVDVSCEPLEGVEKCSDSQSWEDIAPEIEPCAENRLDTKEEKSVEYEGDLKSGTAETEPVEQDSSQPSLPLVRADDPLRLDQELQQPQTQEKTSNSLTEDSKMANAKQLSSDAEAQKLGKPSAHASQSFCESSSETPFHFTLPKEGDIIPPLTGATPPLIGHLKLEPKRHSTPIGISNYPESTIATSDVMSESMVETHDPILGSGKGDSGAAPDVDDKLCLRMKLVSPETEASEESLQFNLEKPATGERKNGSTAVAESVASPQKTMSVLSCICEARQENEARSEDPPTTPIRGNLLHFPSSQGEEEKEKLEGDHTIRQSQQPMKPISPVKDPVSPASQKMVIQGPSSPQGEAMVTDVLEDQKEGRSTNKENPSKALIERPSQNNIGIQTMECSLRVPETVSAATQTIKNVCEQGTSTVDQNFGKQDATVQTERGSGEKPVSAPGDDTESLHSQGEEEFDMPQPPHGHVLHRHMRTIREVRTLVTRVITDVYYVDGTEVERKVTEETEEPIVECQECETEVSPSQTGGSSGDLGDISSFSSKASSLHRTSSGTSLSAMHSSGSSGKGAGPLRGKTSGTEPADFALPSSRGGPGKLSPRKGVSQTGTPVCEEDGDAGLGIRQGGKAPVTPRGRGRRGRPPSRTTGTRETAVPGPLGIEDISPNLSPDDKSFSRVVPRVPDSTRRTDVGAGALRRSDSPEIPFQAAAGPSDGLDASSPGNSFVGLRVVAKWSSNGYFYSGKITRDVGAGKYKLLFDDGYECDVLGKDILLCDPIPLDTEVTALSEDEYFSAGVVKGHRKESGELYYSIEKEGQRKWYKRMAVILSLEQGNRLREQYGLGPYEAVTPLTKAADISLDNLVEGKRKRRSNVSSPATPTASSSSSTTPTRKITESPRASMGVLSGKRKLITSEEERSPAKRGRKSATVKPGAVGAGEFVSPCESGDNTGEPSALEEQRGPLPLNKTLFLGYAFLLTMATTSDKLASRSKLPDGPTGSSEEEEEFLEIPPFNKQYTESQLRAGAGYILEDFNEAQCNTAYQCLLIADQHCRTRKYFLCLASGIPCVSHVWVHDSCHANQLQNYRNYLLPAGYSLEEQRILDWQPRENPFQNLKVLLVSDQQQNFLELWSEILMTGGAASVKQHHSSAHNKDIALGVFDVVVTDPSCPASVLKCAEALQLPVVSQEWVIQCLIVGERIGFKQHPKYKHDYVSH

B1: i53 polypeptide (polypeptide inhibitor of 53BP1) (designed binder)
chain: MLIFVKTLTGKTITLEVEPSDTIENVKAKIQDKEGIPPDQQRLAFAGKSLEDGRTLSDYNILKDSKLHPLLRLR
- HDR efficiency (GFP insertion at the HBB locus, CD34-expressing LT-HSPCs, GFP fluorescence): ~1.3 fold
- INDEL frequency at the HBB locus relative to RNP+AAV (CD34-expressing LT-HSPCs, TIDE analysis): 1.7 fold
- fold increase in HDR at the HBB locus over RNP+AAV alone (CD34-expressing LT-HSPCs, NGS assay): 1.4 fold
- fold increase in HDR efficiency over RNP+AAV alone (LT-HSPCs mobilised with Mozobil+GCSF): ~1.5 fold
